The values that follow come from patent WO2010028797A1 (dated 2010).

This experiment addresses human CCR5 (human, UniProt P51681 1-352). Nature of the experiment: cell-based or functional assay.

Sequence of human CCR5 (P51681 whole entry): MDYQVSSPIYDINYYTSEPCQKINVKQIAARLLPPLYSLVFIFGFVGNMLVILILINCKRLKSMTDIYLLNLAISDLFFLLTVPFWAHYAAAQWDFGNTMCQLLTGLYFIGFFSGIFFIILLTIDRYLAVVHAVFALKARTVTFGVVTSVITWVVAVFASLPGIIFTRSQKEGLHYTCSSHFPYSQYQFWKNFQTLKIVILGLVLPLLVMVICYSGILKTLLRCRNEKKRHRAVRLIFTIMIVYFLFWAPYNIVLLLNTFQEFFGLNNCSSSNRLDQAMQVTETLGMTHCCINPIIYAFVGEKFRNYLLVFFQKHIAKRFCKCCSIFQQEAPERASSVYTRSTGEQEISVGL

B1: BN-1000 (antibody, V domains shown)
VH: QVQLKQSGPGLVRPSQSLSITCTVSGFPLGIFGVHWVRQSPGKGLEWLGVIWKGGNTDYNAAFMSRLRITKDNSKSQVFFRMNSLQTDDTAIYYCAKVNLADAMDYWGQGTSVIVSS
VL: DIQMTQSPASLSASVGETVTITCRASGNIHGYLAWFQQKQGKSPQLLVYNTKTLAEGVPSRFSGSGSGTQFSLKINSLQPEDFGNYYCQHHYDLPRTFGGGTKLEIK
Consider B1, for which the “IC50, antiviral assay in PBMC (HIV-1 NLBaL, p24 ELISA)” value stood at 1.08 nM.
